Measured values as given in patent US20250114467A1 (SHANGHAI FUDAN ZHANGJIANG BIO PHARMACEUTICAL, published 2025).

T1: human DLL3, His tag (acrobiosystems, DL3-H52H4) (human, UniProt Q9NYJ7 27-492)
T1 construct: Bought; also called human DLL3 protein; free DLL3; not shown: His tag
T1 sequence (looked up): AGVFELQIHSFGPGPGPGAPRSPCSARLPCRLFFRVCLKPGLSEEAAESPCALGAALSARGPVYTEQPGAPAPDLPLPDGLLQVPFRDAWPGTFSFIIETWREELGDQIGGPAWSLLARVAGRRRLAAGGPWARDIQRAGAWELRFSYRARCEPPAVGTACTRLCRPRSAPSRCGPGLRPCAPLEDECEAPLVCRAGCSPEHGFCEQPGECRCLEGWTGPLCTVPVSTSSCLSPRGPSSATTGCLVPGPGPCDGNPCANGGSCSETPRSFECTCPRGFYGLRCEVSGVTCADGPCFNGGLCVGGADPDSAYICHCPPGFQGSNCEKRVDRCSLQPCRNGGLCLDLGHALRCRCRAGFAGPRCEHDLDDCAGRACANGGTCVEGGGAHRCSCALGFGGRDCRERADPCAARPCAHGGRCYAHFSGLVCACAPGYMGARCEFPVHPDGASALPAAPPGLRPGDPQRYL

T2: recombinant DLL3 protein (purchased from ACRO, DL3-H5255) (human, UniProt Q9NYJ7 27-479)
T2 construct: Bought; also called human DLL3 protein; hDLL3
T2 sequence (looked up): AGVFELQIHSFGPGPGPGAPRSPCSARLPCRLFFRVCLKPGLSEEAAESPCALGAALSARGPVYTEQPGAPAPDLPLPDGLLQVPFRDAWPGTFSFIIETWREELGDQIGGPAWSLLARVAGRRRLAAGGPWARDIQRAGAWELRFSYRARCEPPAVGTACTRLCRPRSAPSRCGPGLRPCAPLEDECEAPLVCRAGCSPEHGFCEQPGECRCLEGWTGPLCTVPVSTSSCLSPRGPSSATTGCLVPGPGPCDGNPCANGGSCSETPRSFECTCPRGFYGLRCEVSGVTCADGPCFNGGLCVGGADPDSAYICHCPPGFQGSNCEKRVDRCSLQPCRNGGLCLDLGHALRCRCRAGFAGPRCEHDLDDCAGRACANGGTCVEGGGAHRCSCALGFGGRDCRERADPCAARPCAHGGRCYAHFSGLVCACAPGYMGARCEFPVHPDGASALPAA

T3: human DLL1 (purchased from Acro, DL1-H52H8) (human, UniProt O00548 18-540)
T3 construct: Bought; also called hDLL1
T3 sequence (looked up): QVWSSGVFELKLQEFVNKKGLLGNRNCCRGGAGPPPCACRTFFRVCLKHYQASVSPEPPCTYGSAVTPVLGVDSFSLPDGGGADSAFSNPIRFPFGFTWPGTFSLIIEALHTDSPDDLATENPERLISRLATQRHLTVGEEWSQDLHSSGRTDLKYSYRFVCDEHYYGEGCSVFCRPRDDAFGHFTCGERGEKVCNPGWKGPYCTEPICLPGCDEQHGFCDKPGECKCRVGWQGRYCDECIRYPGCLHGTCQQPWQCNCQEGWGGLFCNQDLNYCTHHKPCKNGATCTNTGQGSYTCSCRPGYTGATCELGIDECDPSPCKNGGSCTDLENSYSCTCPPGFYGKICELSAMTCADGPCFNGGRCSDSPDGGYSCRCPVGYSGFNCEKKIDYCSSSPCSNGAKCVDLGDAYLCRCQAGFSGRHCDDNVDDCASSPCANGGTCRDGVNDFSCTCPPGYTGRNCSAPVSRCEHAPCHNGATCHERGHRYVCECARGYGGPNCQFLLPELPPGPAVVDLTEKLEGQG


Legend:
[1] = biological target: T4, human DLL4 (purchased from Acro, DL4-H5227) (human, UniProt Q9NR61 27-524); assay: ELISA on plate-coated human DLL4 protein (1 µg/ml), HRP goat anti-human secondary, OD 450 nm [right panel]
T4 construct: Bought; also called hDLL4
Procedure: (§1) The chimeric antibodies obtained in Example 6 were evaluated for their binding abilities to human DLL1 (purchased from Acro, DL1-H52H8) and DLL4 (purchased from Acro, DL4-H5227) proteins using the ELISA method. The ELISA detection method involved diluting DLL1 and DLL4 proteins with PBS to a final concentration of 1 μg/ml and coating them onto 384-well ELISA plates (purchased from Corning, 3700) at 4° C. overnight. The next day, the supernatant in the plate wells was discarded, and the wells were blocked with 80 μl of 3% milk (dissolved in PBS) for 2 hours, followed by washing three times with 80 μl of PBST (0.1% Tween20). […] After washing with 80 μl of PBST (0.1% Tween20) for five times, 25 μl of HRP-labeled goat anti-human secondary antibody (Jackson, 1:10000) was added to each well and incubated at room temperature for 1 hour, discard the supernatant, and the wells were then washed seven times with 80 μl of PBST (0.1% Tween20). After adding 25 μl of TMB chromogen solution for 10 minutes, the reaction was terminated with 2M HCl, and the absorbance value at 450 nm was measured with a Microplate reader (purchased from Biotek, Elx808). […] To assess the cross-reactivity of the antibodies with mouse and monkey DLL3, mouse DLL3-expressing plasmid pCMV3-mDLL3 (purchased from Beijing Yiqiao, MG58052-UT) and monkey DLL3-expressing plasmid pCMV3-rheDLL3 (purchased from Beijing Yiqiao, CG90919-UT) were used to construct overexpressing cell lines. The construction of overexpressing cells was as described in Examples 2-3. The binding abilities of the chimeric antibodies to these cells were determined by flow cytometry to assess the cross-reactivity of the antibodies with different species.

[2] = biological target: T1, human DLL3, His tag (acrobiosystems, …); assay: BLI (Octet 96e), antibody on sensor, DLL3-His 100-3.13 nM in solution
Procedure: To assess the affinity of antibodies for human DLL3 protein, this study employed the BLI method to detect the binding kinetics curves of immobilized antibodies with free DLL3. The method was conducted according to the instrument's user manual (supplier: Fortebio, equipment model: Octet 96e). Briefly, AMC sensors were equilibrated for 60 s with Loading Buffer/Sample dilution buffer (1×PBS, pH7.4, with 0.1% BSA and 0.02% Tween-20) to obtain Baseline 1. The antibodies to be detected were diluted with Loading Buffer to a concentration of 10 ug/ml and bound to the equilibrated sensors, after which the sensors were re-equilibrated with Loading Buffer to obtain Baseline 2. The antibody-loaded sensors were then placed in human DLL3, His tag (supplier: acrobiosystems, catalog number: DL3-H52H4) diluted with Sample Dilution Buffer to concentrations ranging from 100 to 3.13 nM for 90 s to obtain the antibody-protein binding curve. Then, the sensors combined with antigen were placed in the Sample Dilution Buffer again and dissociated for 180 s, and the dissociation curve was obtained. The k-on and k-off values of the antibody-protein binding were calculated based on the binding and dissociation curves, and the KD values were calculated, with the results shown in Table 4.

[3] = biological target: T2, recombinant DLL3 protein (purchased …); assay: ELISA, plate-coated human DLL3 protein 1 µg/ml
Excerpt: Six 6-week-old SPF grade female Balb/C mice (purchased from Shanghai Jihui Laboratory Animal Care Co., Ltd.) were selected and randomly divided into two groups, A and B. They were immunized with recombinant DLL3 protein (purchased from ACRO, DL3-H5255) at two-week intervals. Freund's complete adjuvant was used for the first immunization and Freund's incomplete adjuvant was used for subsequent immunizations. On days 35 and 49, blood samples were collected from the mice via orbital bleeding, and the immune serum titers of the mice were detected using conventional methods of ELISA and Flow Cytometry (FACS). ELISA detection method: DLL3 protein was diluted with PBS to a concentration of 1 μg/ml. 100 μl/well was added to a 96-well ELISA plate and incubated overnight at 4° C. The next day, the supernatant was discarded, and each well was blocked with 200 μl of 2% milk in PBS for 2 hours. After discarding the blocking solution, the wells were washed 3 times with 200 μl of PBST (0.1% Tween20). The serum to be detected was pre-diluted 100 times as the starting concentration, followed by a 3-fold gradient dilution across 11 concentrations, with 100 μl added to each well of the ELISA plate. After incubating at room temperature for 1 hour, the supernatant was discarded and the wells were washed 5 times with 200 μl of PBST (0.1% Tween20). Then, 100 μl of HRP-labeled goat anti-mouse secondary antibody (Jackson, 1:10000) was added and incubated at room temperature for 1 hour. After discarding the supernatant, the wells were washed 7 times with 200 μl of PBST (0.1% Tween20). 100 μl of TMB chromogen solution was added to each well for 10 minutes. The reaction was terminated with 2M HCl, and absorbance value at 450 nm was read with a Microplate Reader (purchased from Biotek, Elx808).
For the hybridoma clones with good binding and internalization activities identified in Example 5, the heavy chain variable region sequences were synthesized and cloned into the pFUSEss-CHIg-hG1 vector (purchased from InvivoGen, catalog number pfusess-hchgl) comprising the amino acid sequence of the human antibody IgG1 heavy chain constant region by homologous recombination.

[4] = biological target: T4, human DLL4 (purchased from Acro, …); assay: ELISA, plate-coated protein 1 µg/ml
Procedure: as §1

[5] = biological target: T3, human DLL1 (purchased from Acro, …); assay: ELISA on plate-coated human DLL1 protein (1 µg/ml), HRP goat anti-human secondary, OD 450 nm [left panel]
Procedure: as §1

T4 sequence (Q9NR61 27-524 limits assumed): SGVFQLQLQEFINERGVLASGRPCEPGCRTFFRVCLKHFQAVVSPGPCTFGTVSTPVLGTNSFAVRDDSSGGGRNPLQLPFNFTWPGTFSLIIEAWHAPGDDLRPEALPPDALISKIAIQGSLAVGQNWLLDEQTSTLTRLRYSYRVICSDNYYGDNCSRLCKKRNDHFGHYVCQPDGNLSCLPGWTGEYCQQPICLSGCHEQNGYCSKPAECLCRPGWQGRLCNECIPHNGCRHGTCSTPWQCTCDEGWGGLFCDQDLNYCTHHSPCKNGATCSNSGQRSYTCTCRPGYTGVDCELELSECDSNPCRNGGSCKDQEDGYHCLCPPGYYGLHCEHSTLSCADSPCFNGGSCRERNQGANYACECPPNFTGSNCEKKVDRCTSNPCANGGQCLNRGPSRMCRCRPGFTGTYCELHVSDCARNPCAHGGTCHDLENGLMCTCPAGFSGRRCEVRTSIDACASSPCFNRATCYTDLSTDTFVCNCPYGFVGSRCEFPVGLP

Row | binding result [1] | Kd [2] [nM] | koff [2] [s⁻¹] | kon [2] [M⁻¹ s⁻¹] | EC50 [3] [µg/mL] | binding result [4] | binding result [5] | Binder
1 | no binding (tested: 20 µg/ml) | 0.0991 | 0.000168 | 1.69e+06 | 0.0159 |  |  | ch36H10 (antibody, human IgG1, kappa, V domains shown, Chimeric: murine variable regions on human IgG1 heavy and kappa light constant regions; also called chimeric antibody 36H10) VH: EVQFQQSGPELVKPGASVKISCKASGYTFTDYNIHWVRQSQGKSLEWIGLIYPFNGGIVYNQKFKSKATLTVDNSSTSAYMELRSLSSEDSAVYFCARLNWEGYWGQGSTLIVSS VL: DIKMTQSPSSIYAFLGERVTITCKASQDINSYLSWFQQKPGKSPKTLIYRANRLVGGVPSRFSGSGSGQDYSLTISSLEYEDVGDYYCLQYAEFPYTFGGGTKLEIKR
2 |  | 0.104 | 0.000111 | 1.07e+06 | 0.0115 | no binding (tested: up to 20 µg/ml) |  | ch4H7 (antibody, human IgG1, kappa, V domains shown, Chimeric: murine variable regions on human IgG1 heavy and kappa light constant regions; also called chimeric antibody 4H7) VH: EVQLQQSGAELVRPGALVKLSCKASGFNFKDYYIHWVKQRPELGLEWIGWIDPENGNAIYDPKFQDKASITADTSSNTAYLHLSSLTSEGTAVYYCASEDAYYPFAYWGQGTLVTVSA VL: DIVMSQSPSSLAVSVGEKVTMRCKSSQSLLYSSNQKNYLAWYQQKPGQSPKLLIYWASTRESGVPDRFTGSGSGTDFTLTISSVKAEDLAVYFCQQYYSYRTFGGGTKLEIKR
3 |  |  |  |  | 0.0233 |  | no binding (tested: 20 µg/ml) | FDA031 (antibody, human IgG1, kappa, V domains shown, also called anti-DLL3 antibody FDA031) VH: QVQLVQSGAEVKKPGASVKVSCKASGYTFTRYWIHWIRQAPGQGLEWMGYINPTTVYTEFNQNFKDRVTMTRDTSTSTVYMELSSLRSEDTAVYYCARGGSNFFDYWGQGTTVTVSS VL: AIQLTQSPSSLSASVGDRVTITCRASENIYYNLAWYQQKPGKAPKLLIYTANSLEDGVPSRFSGSGSGTDFTLTISSLQPEDFATYFCKQAYDVPPTFGGGTKLEIKR
